Assay results from patent US20120087858A1 (AbbVie / Abbott, published 2012).

T1: Recombinant Human SOST (human, UniProt Q9BQB4 24-213)
T1 construct: Biacore reagent from R&D Systems; the Wnt-1/luciferase assay used Human Sclerostin (Abbott PR-1261069); also called Sclerostin; Human Sclerostin
T1 sequence (looked up): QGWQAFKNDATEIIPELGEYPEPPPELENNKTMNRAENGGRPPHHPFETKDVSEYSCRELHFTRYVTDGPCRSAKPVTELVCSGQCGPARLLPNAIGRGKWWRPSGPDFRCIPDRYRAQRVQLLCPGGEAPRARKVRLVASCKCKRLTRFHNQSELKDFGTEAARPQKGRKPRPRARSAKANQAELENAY

B1: DVD1460 (bispecific antibody, human IgG1, kappa)
heavy: not shown
light: DIQMTQSPSSLSASVGDRVTITCRASQSISNNLNWYQQKPGKAPKLLIYYTSRFHSGVPSRFSGSGSGTDFTFTISSLQPEDIATYYCQQEHTLPYTFGQGTKLEIKRTVAAPSVFIFPPDIVMTQSHKFMSTTVGDRVSITCKASQAVSSAVAWYQQKPGQSPKLLIYWASTRHTGVPDRFTGSGSVTDFTLTIHNLQAEDLALYYCQQHYSTPFTFGSGTKLEIKRTVAAPSVFIFPPSDEQLKSGTASVVCLLNNFYPREAKVQWKVDNALQSGNSQESVTEQDSKDSTYSLSSTLTLSKADYEKHKVYACEVTHQGLSSPVTKSFNRGEC
notes: DVD-Ig; linker set 2; also called DVD1460H; DVD1460L
B2: DVD1520 (bispecific antibody, human IgG1, kappa)
heavy: not shown
light: DIQMTQSPSSLSASVGDRVTITCRASQSISNNLNWYQQKPGKAPKLLIYYTSRFHSGVPSRFSGSGSGTDFTFTISSLQPEDIATYYCQQEHTLPYTFGQGTKLEIKRTVAAPDIQMTQSPSSLSASVGDRVTITCRASQGIRIDLGWYQQKPGKAPKRLIYAASTLQSGVPSRFSGSGSGTEFIFTISSLQPEDFASYYCLQHKSYPLTFGGGTKVEIKRTVAAPSVFIFPPSDEQLKSGTASVVCLLNNFYPREAKVQWKVDNALQSGNSQESVTEQDSKDSTYSLSSTLTLSKADYEKHKVYACEVTHQGLSSPVTKSFNRGEC
notes: DVD-Ig; linker set 3; also called DVD1520H; DVD1520L
B3: DVD1495 (bispecific antibody, human IgG1, kappa)
heavy: not shown
light: DIVMTQSHKFMSTTVGDRVSITCKASQAVSSAVAWYQQKPGQSPKLLIYWASTRHTGVPDRFTGSGSVTDFTLTIHNLQAEDLALYYCQQHYSTPFTFGSGTKLEIKRTVAAPDVQMIQSPSSLSASLGDIVTMTCQASQGTSINLNWFQQKPGKAPKLLIYGSSNLEDGVPSRFSGSRYGTDFTLTISSLEDEDLATYFCLQHSYLPYTFGGGTKLEIKRTVAAPSVFIFPPSDEQLKSGTASVVCLLNNFYPREAKVQWKVDNALQSGNSQESVTEQDSKDSTYSLSSTLTLSKADYEKHKVYACEVTHQGLSSPVTKSFNRGEC
notes: DVD-Ig; linker set 3; also called DVD1495H; DVD1495L
B4: DVD1454 (bispecific antibody, human IgG1, kappa)
heavy: not shown
light: DVQMIQSPSSLSASLGDIVTMTCQASQGTSINLNWFQQKPGKAPKLLIYGSSNLEDGVPSRFSGSRYGTDFTLTISSLEDEDLATYFCLQHSYLPYTFGGGTKLEIKRTVAAPSVFIFPPDIVMTQSHKFMSTTVGDRVSITCKASQAVSSAVAWYQQKPGQSPKLLIYWASTRHTGVPDRFTGSGSVTDFTLTIHNLQAEDLALYYCQQHYSTPFTFGSGTKLEIKRTVAAPSVFIFPPSDEQLKSGTASVVCLLNNFYPREAKVQWKVDNALQSGNSQESVTEQDSKDSTYSLSSTLTLSKADYEKHKVYACEVTHQGLSSPVTKSFNRGEC
notes: DVD-Ig; linker set 2; also called DVD1454H; DVD1454L
B5: DVD1502 (bispecific antibody, human IgG1, kappa)
heavy: not shown
light: DIQMTQSPSSLSASVGDRVTITCRASQSISNNLNWYQQKPGKAPKLLIYYTSRFHSGVPSRFSGSGSGTDFTFTISSLQPEDIATYYCQQEHTLPYTFGQGTKLEIKRTVAAPDIVMTQSHKFMSTTVGDRVSITCKASQAVSSAVAWYQQKPGQSPKLLIYWASTRHTGVPDRFTGSGSVTDFTLTIHNLQAEDLALYYCQQHYSTPFTFGSGTKLEIKRTVAAPSVFIFPPSDEQLKSGTASVVCLLNNFYPREAKVQWKVDNALQSGNSQESVTEQDSKDSTYSLSSTLTLSKADYEKHKVYACEVTHQGLSSPVTKSFNRGEC
notes: DVD-Ig; linker set 3; also called DVD1502H; DVD1502L

Legend:
Recombinant Human β-NGF [1] = biological target: T2, Recombinant Human β-NGF (human, UniProt P01138 122-241); test: cell-based or functional assay
T2 sequence (P01138 122-241 limits assumed): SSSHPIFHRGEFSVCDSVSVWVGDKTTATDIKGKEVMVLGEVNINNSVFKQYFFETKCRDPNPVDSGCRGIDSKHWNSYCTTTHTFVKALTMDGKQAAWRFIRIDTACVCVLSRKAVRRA

[2] = biological target: T3, Recombinant Human TNF-α/TNFSF1A (human, UniProt P01375 77-233); test: Biacore SPR
T3 construct: Bought reagent; The same protein name (huTNFα) is used in the L929 neutralization assay; also called huTNFα
T3 sequence (P01375 77-233 limits assumed): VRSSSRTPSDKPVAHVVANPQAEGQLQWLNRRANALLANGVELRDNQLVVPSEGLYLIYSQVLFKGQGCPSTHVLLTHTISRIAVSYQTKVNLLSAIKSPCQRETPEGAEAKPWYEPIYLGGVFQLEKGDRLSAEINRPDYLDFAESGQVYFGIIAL
Protocol: (§1) The BIACORE assay (Biacore, Inc, Piscataway, N.J.) determines the affinity of antibodies or DVD-Ig with kinetic measurements of on-rate and off-rate constants. Binding of antibodies or DVD-Ig to a target antigen (for example, a purified recombinant target antigen) is determined by surface plasmon resonance-based measurements with a Biacore® 1000 or 3000 instrument (Biacore® AB, Uppsala, Sweden) using running HBS-EP (10 mM HEPES [pH 7.4], 150 mM NaCl, 3 mM EDTA, and 0.005% surfactant P20) at 25° C. All chemicals are obtained from Biacore® AB (Uppsala, Sweden) or otherwise from a different source as described in the text. For example, approximately 5000 RU of goat anti-mouse IgG, (Fcγ), fragment specific polyclonal antibody (Pierce Biotechnology Inc, Rockford, Ill.) diluted in 10 mM sodium acetate (pH 4.5) is directly immobilized across a CMS research grade biosensor chip using a standard amine coupling kit according to manufacturer's instructions and procedures at 25 μg/ml. Unreacted moieties on the biosensor surface are blocked with ethanolamine. Modified carboxymethyl dextran surface in flowcell 2 and 4 is used as a reaction surface. Unmodified carboxymethyl dextran without goat anti-mouse IgG in flow cell 1 and 3 is used as the reference surface. For kinetic analysis, rate equations derived from the 1:1 Langmuir binding model are fitted simultaneously to association and dissociation phases of all eight injections (using global fit analysis) with the use of Biaevaluation 4.0.1 software. Purified antibodies or DVD-Ig are diluted in HEPES-buffered saline for capture across goat anti-mouse IgG specific reaction surfaces. Antibodies or DVD-Ig to be captured as a ligand (25 μg/ml) are injected over reaction matrices at a flow rate of 5 μl/min. The association and dissociation rate constants, kₒₙ (M⁻¹s⁻) and koff(s⁻¹) are determined under a continuous flow rate of 25 μl/min. Rate constants are derived by making kinetic binding measurements at different antigen concentrations ranging from 10-200 nM. The equilibrium dissociation constant (M) of the reaction between antibodies or DVD-Igs and the target antigen is then calculated from the kinetic rate constants by the following formula: KD=koff/kₒₙ. Binding is recorded as a function of time and kinetic rate constants are calculated.

Recombinant Human β-NGF [3] = biological target: T2, Recombinant Human β-NGF; test: Biacore SPR
Protocol: as §1

[4] = biological target: T3, Recombinant Human TNF-α/TNFSF1A; test: cell-based or functional assay
Recombinant Human SOST = biological target: T1, Recombinant Human SOST; test: Biacore SPR
Protocol: as §1

Binder	NGF Inhibition Assay EC50 (TF-1 cell proliferation) (Recombinant Human β-NGF [1]) [pM]	Kd [2] [pM]	koff [2] [s⁻¹]	kon [2] [M⁻¹ s⁻¹]	Kd (Recombinant Human β-NGF [3]) [pM]	koff (Recombinant Human β-NGF [3]) [s⁻¹]	kon (Recombinant Human β-NGF [3]) [M⁻¹ s⁻¹]	TNFα Neutralization Assay EC50 (L929 cells) [4] [pM]	Kd (Recombinant Human SOST) [pM]	koff (Recombinant Human SOST) [s⁻¹]	kon (Recombinant Human SOST) [M⁻¹ s⁻¹]
B1	1700	260	3.6e-05	140000	0.85	2e-06	2.3e+06				
B2	25	3.8	4.4e-06	1.1e+06	3.4	9.3e-06	2.7e+06	7210			
B3		21	5.4e-05	2.5e+06				3.8	22000	0.00095	44000
B4		210	4.9e-05	230000				951	84	0.00086	1e+07
B5	28	300	5.5e-05	180000	< 0.4	< 1e-06	2.5e+06	460			
